The chains are these.
B1: 15H1 VHH-Fc (Fc fusion)
chain: QVQLVESGGGLAQAGGSLRLSCASSGLIFSGSAMGWFRQAPGKEREFVGVISWNGRTTYADSVKGRFTISRDDAVNMVWLQMNNLKPEDTAVYYCAADHLNYGSGDVNPRTYDYWGQGTQVTVSS
B2: 8E9 VHH-Fc (Fc fusion)
chain: QVQLVESGGGLVEAGGSLRLSCVASGSSSSINAMGWYRQAPGKQRELVASISHDGETKYANSVKGRFTISRGNAKNTIYLQMNSLKPEDTAVYYCVGDVAWVVVAGEYDYWGQGTQVTVSS
B3: 5A6 VHH-Fc (Fc fusion)
chain: QVQLVESGGGLAQAGGSLRLSCATSGLTFSMSAMGWFRQAPGNEREFVGVINWNGGSSRYADSVRGRFTISRDNAKNTVYLQMNSLKPEDTGVYYCAADALNIGTGEVNPRLYDYWGQGTQVMVSS
B4: 13C8 VHH-Fc (Fc fusion)
chain: QVQLVESGGGLVQAGGSLRLSCAASGRTVNKYMTGWFRQTPGKEREFVASIDWSSTTTHYANSVKGRFTISRDKVKNTVYLQMNGLKPEDTAVYYCAAHQDSSYGYTILPIDYDSWGQGTQVTVSS
B5: 9B2 VHH-Fc (Fc fusion)
chain: QVQLVESGGGLVQPGGSLRLSCAASGFTLDNYAIGWFRQAPGKEREGVSCISSSDGDTQYADSVKGRFTISRDNAKNTVYLQMNSLKPEDTAVYYCAVEKVYARSWFFHLCSELDFGSWGQGTQVTVSS
B6: 5D7 VHH-Fc (Fc fusion)
chain: QVQLVESGGGLVQAGGSLRLSCAASGRTGSRYIMGWFRQAPGKEREFVAAINWRGDSTYYADSVKGRFTIARDNAKNTAYLQMNSLKPEDTAVYYCVADRGESYYYTRSTEYTYWGQGTQVTVSS
B7: 19E10 VHH-Fc (Fc fusion)
chain: QVQLVESGGGLVQPGGSLRLSCVASGSTISINSMGWYRQAPGKAREMVATITNDGPIKYADPVKGRFTISRDNPKNTVYLQMNSLKPEDTAVYYCVADRAYWLAGEWEYWGQGTQVTVSS
B8: 1A11 VHH-Fc (Fc fusion)
chain: QVQLVESGGGLVQAGGSLRLSCEVSGSIYSINSMGWYRQAPGKQRELVAGIVSDGRINYADSVKGRFTISRAKNTVYLQMNSLKPEDTAVYYCAADRAFVYAGDYDYLGQGTQVTVSS
B9: 15H7 VHH-Fc (Fc fusion)
chain: QVQLVESGGRLVQAGGSLRLSCAAPGRTFRNLTLGWFRQAPGKEREFVASTSWPDDEMTYYTDSVKGRFTISRDNAKNTVYLQMNSLKPEDTAVYYCAAASWSGRSTLSYDYDYWGQGTQVTVST

The target in one experiment is SARS-CoV spike protein on recombinant CHO K1 cells (SARS-CoV, UniProt P59594 14-1255). The experiment is described as follows: FACS on CHO K1 cells.
On to B1, for which the EC50 was 0.14 nM.
On the same count and under the same terms, the figure for B2 is 0.17 nM.
For the molecule B3, the EC50 stood at 0.21 nM.
The same measure, in the same setting: then B4, with 0.11 nM.
Still for that read-out and setting: then B5, with 0.13 nM; and B6, with 0.09 nM.
The same measure, in the same setting: then B7, with 0.08 nM.
With B8, the EC50 was 0.06 nM.
Same read-out and setting: then B9, with 0.14 nM.

The target of another experiment is T1, MERS spike protein on recombinant CHO K1 cells (MERS-CoV, UniProt K9N5Q8 18-1353).
T1 sequence: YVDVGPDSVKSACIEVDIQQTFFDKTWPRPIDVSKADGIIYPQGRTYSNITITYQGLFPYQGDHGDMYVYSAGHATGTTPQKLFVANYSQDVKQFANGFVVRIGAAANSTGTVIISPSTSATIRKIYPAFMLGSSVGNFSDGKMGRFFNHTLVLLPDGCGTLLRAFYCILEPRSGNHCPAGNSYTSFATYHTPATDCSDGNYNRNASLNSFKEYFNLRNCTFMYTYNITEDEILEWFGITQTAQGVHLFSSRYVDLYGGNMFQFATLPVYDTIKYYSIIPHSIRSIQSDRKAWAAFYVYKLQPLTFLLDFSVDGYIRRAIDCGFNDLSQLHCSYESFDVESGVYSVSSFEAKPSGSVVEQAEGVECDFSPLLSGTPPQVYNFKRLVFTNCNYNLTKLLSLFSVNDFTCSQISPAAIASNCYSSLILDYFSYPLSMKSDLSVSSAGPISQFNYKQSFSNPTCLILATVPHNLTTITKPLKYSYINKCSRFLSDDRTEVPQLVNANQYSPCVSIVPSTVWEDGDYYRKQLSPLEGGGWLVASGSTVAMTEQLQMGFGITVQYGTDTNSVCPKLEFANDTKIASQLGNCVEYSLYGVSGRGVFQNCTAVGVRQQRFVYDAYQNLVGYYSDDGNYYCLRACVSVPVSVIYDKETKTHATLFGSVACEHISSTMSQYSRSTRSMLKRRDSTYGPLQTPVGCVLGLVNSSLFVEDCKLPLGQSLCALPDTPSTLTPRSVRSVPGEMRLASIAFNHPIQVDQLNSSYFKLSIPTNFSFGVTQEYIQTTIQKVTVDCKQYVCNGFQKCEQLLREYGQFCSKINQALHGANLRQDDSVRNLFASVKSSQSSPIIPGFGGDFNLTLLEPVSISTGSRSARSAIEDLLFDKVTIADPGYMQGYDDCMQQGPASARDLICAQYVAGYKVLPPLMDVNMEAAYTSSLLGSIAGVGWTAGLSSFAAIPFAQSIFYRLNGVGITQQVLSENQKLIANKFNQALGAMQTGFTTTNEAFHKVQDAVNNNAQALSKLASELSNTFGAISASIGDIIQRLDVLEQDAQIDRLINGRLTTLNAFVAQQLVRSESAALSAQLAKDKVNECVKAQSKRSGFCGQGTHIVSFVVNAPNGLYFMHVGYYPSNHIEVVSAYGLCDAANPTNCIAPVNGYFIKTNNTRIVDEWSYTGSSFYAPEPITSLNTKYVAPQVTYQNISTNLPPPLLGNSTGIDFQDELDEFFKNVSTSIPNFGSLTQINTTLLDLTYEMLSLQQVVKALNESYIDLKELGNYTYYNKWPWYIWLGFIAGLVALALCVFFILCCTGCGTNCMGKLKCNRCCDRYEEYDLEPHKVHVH
The experiment is described as follows: FACS on CHO K1 cells.
On to B1, for which the binding result is listed as “no binding”.
On the same count and under the same terms, the entry for B2 is “no binding”; for B3 it is “no binding”; for B4 it is “no binding”.
On the same count and under the same terms, then B5, with “no binding”.
On the same count and under the same terms, then B6, with “no binding”; and B7, with “no binding”; and B8, with “no binding”.
For B9, the binding result is “no binding”.

The next experiment deals with T2, SARS-CoV-2 spike protein on recombinant CHO K1 cells (SARS-CoV-2, UniProt P0DTC2 14-1273).
T2 construct: whole, on cells
In words: FACS on CHO K1 cells.
For the molecule B1, the EC50 was found to be 0.25 nM.
As for B2, the EC50 is 0.31 nM.
The same measure, in the same setting: the figure for B3 is 0.43 nM.
Same read-out and setting: then B4, with 0.22 nM.
Still for that read-out and setting: the figure for B5 is 0.21 nM; for B6 it is 0.12 nM; for B7 it is 0.14 nM.
B8: the EC50 is 0.13 nM.
Same read-out and setting: then B9, with 0.28 nM.

The target in another experiment is SARS-CoV spike on rVSV-deltaG-Luc pseudovirus (SARS-CoV, UniProt P59594 14-1236). The experiment is described as follows: cell-based or functional assay.
On to B1, for which the “pseudovirus neutralization IC50” value came to 12.3 nM.
The same measure, in the same setting: the figure for B2 is 2.94 nM; for B3 it is 6.3 nM; for B4 it is 4.98 nM.
The same measure, in the same setting: then B5, with 0.19 nM; and B6, with 220 nM; and B7, with 0.12 nM.
The same measure, in the same setting: the figure for B8 is 0.18 nM; for B9 it is 1.71 nM.

The record behind these values is patent publication US20250382355A1 (Merck Sharp & Dohme, published 2025).
